Article PMC4039189

Target: C-terminal TAP-tagged PB1 (influenza A virus, strain not stated)
Test: pull-down

B1: DDX21, plasmid-expressed (pcDNA3 plasmid expressing DDX21) (natural protein)
chain: MPGKLRSDAGLESDTAMKKGETLRKQTEEKEKKEKPKSDKTEEIAEEEETVFPKAKQVKKKAEPSEVDMNSPKSKKAKKKEEPSQNDISPKTKSLRKKKEPIEKKVVSSKTKKVTKNEEPSEEEIDAPKPKKMKKEKEMNGETREKSPKLKNGFPHPEPDCNPSEAASEESNSEIEQEIPVEQKEGAFSNFPISEETIKLLKGRGVTFLFPIQAKTFHHVYSGKDLIAQARTGTGKTFSFAIPLIEKLHGELQDRKRGRAPQVLVLAPTRELANQVSKDFSDITKKLSVACFYGGTPYGGQFERMRNGIDILVGTPGRIKDHIQNGKLDLTKLKHVVLDEVDQMLDMGFADQVEEILSVAYKKDSEDNPQTLLFSATCPHWVFNVAKKYMKSTYEQVDLIGKKTQKTAITVEHLAIKCHWTQRAAVIGDVIRVYSGHQGRTIIFCETKKEAQELSQNSAIKQDAQSLHGDIPQKQREITLKGFRNGSFGVLVATNVAARGLDIPEVDLVIQSSPPKDVESYIHRSGRTGRAGRTGVCICFYQHKEEYQLVQVEQKAGIKFKRIGVPSATEIIKASSKDAIRLLDSVPPTAISHFKQSAEKLIEEKGAVEALAAALAHISGATSVDQRSLINSNVGFVTMILQCSIEMPNISYAWKELKEQLGEEIDSKVKGMVFLKGKLGVCFDVPTASVTEIQEKWHDSRRWQLSVATEQPELEGPREGYGGFRGQREGSRGFRGQRDGNRRFRGQREGSRGPRGQRSGGGNKSNRSQNKGQKRSFSKAFGQ
- percent reduction of TAP-selected PA by DDX21 (1 μg plasmid): 75%
- percent reduction of TAP-selected PB2 by DDX21 (1 μg plasmid): 65%
